# Source: CN106117358A (UNIV SUN YAT SEN, dated 2016)
# Changes are numbered by the printed parent chain.
# B1: A30228 (VHH)
# VHH: QVKLEESGGGLVQAGDSLTLSCAASGRTFDTMGWFRQAPGKEREFVAAVRWSSGNTYYGNTVKGRFTISRDTATNTVYLEMNSLKHEDTAVYYCAARLAGRGAADHWGQGTQVTVSS
# notes: Llama sdAb from a phage display library; Tested as sdAb-SASA protein in E. coli expression medium / culture supernatant (FASEBA format), not purified; 1; also called 抗CD3单域抗体; sdAb; not shown: SASA fusion partner of the pFASEBA vector (sdAb-SASA protein)
# B2: A30311 (VHH)
# VHH: B1 VHH with D16G, T19R, E80Q, A99G
# notes: Llama sdAb from a phage display library; Tested as sdAb-SASA protein in E. coli expression medium / culture supernatant (FASEBA format), not purified; 3; also called 抗CD3单域抗体; sdAb; not shown: SASA fusion partner of the pFASEBA vector (sdAb-SASA protein)
# Experiments:
# CD3 on Jurkat cells [1] = target: CD3 on Jurkat cells (UniProt P07766); assay: flow cytometry, culture supernatant on Jurkat cells (negative control)
# CD3 on Jurkat cells [2] = target: CD3 on Jurkat cells (UniProt P07766); assay: flow cytometry, culture supernatant on Jurkat cells
# CD3-His蛋白(MP-5) = target: T1, CD3-His蛋白(MP-5) (UniProt P07766 23-126); assay: BLI (Octet RED96), off-rate screening; sdAb-SASA from expression medium captured on BSA-coated biosensor, 100 nM CD3 in solution, 1:1 Langmuir fit, 30°C
# T1 construct: Immunogen and panning antigen; the construct is not defined; also called CD3蛋白; not shown: His tag
# T1 sequence (P07766 23-126): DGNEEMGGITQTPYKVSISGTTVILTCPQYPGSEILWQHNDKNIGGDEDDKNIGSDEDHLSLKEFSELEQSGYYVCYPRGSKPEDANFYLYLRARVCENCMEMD
Molecule,MFI (CD3 on Jurkat cells [1]),MFI (CD3 on Jurkat cells [2]),koff (CD3-His蛋白(MP-5)) [s⁻¹]
NC-sdAb (VHH),115,–,–
B1,–,240,7.61e-05
B2,–,299,0.000153
